Test results reported in article PMC8632296 (mAbs, 2021).

Key:
[1] = target: recombinant human carbonic anhydrase IX extracellular domain, dimer (Homo sapiens, UniProt Q16790); assay: SPR
[2] = target: recombinant human carbonic anhydrase IX extracellular domain, monomer (human, UniProt Q16790); assay: SPR
[3] = target: human carbonic anhydrase IX on cells and in tumour tissue (Homo sapiens, UniProt Q16790); assay: plate-based cell binding assay

B1: c12H8, recombinant chimeric anti-hCAIX antibody (human IgG1) (antibody, V domains shown)
VH: QIQLVQSGPELKKPGETVKISCKASGYTFTNYGMNWVQQAPGKGLKWMGWINTYTGEPTYADDFKGRFAFSLETSASTAYLQINNLKNEDMATYFCARGGIATPTSYWGQGTTLTVSS
VL: not shown
- Kd [1]: 0.032 nM
- koff [1]: 0.000115 s⁻¹
- kon [1]: 3.58e+06 M⁻¹ s⁻¹
- Kd [2]: 34.5 nM
- koff [2]: 0.0524 s⁻¹
- kon [2]: 1.52e+06 M⁻¹ s⁻¹
- EC50 [3]: 0.221 nM

B2: m9B6, recombinant murine anti-hCAIX antibody (mouse IgG2a) (antibody, V domains shown)
VH: QVQLQQPGAELVKPGASVKLSCKASGYIFTTKWINWVKQRPGQGLEWIGNIYPGSSNTYYNEKFKNKATLTVDKSSNTAHLQLSSLTSEDSAVYYCARGIANWGQGTPVTVSA
VL: DIVLTQSPSSLAVSLGQRATISCKASQSVDYDGNSYMNWFQQKPGQPPKLLIYEASSLESGIPARISGSGSGTDFTLNIHPVEEEDAATYYCQQSYEGPYTFGGGTKLEIK
- EC50 [3]: 21.8 nM

B3: m4A2, recombinant murine anti-hCAIX antibody (mouse IgG2a) (antibody, V domains shown)
VH: EVKLEESGGGLVQPGRSMKLSCVASGFTFSYYWMDWVRQSPEKGLEWVAEIRLKSDNYATHYAESVKGRFTISRDDSKSSVYLQMNNLRAEDTGIYYCTRAPHYYGYFDYWGQGTTLTVSS
VL: QIVLTQSPAVMSAFPGEKVTMTCSASSSVGYMHWYQQKAGSSPRLLIYDTSNLSSGVPARCSGSGSGTSYSLTISRMEAEDAATYYCQQWRSYPPTFGGGTKLEIK
- Kd [1]: 0.189 nM
- koff [1]: 7.68e-05 s⁻¹
- kon [1]: 406000 M⁻¹ s⁻¹
- Kd [2]: 0.826 nM
- koff [2]: 0.00019 s⁻¹
- kon [2]: 229000 M⁻¹ s⁻¹
- EC50 [3]: 1.16 nM
